Laboratory results as given in patent US9260483B2, “Triazacyclononane-based phosphinate ligand and its use for molecular imaging” (TECHNISCHE UNIVERSITÄT MÜNCHEN, priority 2011, dated 2016).
Like-named read-outs stand apart in the source and are kept apart here.

Columns and labels:
in vivo = assay: in vivo; design: species or system mice; conditions: CD-1 athymic nude, mouse, total radioactivity
Procedure: Biodistribution of ^68Ga-R3PEG4P9
Biodistribution studies were performed using CD-1 athymic nude mice bearing human melanoma xenografts on both shoulders (right: M21 cell line with high αvβ3 integrin xexpression, left: M21L cell line with low αvβ3 integrin expression). The mice were injected 6-9 MBq of ^68Ga-R3PEG4P9 (specific activity: ca. 900 GBq/μmol, corresponding to approx. 7-10 pmol of the tracer). After the specified time points (60 and 120 min, respectively), the mice were sacrificed, the organs taken out and counted in a gamma counter. For blockade, the mice were administered 200 μg (approx. 10 mg/kg) of unlabeled R3PEG4P9 10 min before tracer injection.
Data is visualized in the chart (FIG. 3).

[1] = test system: CD-1 athymic nude mice bearing human melanoma xenografts; conditions: mouse
αvβ3 integrin = molecular target: T1, αvβ3 integrin (Homo sapiens, UniProt P05106+P06756); assay: In vitro binding assay: displacement of 125I-echistatin on M21 human melanoma cells; conditions: log IC50
T1 construct: endogenous in cells; host or cells: M21 human melanoma cells
T1 sequence (P06756 31-889 limits assumed): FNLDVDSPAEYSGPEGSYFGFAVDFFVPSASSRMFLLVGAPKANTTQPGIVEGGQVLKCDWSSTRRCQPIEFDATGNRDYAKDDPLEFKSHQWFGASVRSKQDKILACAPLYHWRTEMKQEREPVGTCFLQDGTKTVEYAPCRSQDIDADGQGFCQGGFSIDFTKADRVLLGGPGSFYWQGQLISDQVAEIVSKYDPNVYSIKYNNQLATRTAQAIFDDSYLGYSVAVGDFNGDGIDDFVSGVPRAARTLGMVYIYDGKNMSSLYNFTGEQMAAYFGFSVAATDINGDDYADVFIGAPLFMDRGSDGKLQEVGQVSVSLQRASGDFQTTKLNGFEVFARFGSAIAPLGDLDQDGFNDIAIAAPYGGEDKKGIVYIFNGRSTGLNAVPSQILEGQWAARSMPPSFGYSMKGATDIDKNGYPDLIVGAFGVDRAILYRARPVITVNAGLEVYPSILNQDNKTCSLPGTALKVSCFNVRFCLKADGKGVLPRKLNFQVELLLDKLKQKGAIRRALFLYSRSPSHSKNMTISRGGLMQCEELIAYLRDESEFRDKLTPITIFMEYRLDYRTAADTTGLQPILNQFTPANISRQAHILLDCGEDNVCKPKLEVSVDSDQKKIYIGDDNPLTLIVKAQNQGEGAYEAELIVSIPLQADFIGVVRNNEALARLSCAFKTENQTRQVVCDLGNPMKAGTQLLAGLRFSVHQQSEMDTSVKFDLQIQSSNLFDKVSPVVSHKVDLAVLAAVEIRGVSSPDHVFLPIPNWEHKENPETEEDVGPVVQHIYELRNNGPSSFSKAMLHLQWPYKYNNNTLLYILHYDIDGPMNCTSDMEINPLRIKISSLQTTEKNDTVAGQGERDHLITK
T1 sequence (P06756 891-1048 partner limits assumed): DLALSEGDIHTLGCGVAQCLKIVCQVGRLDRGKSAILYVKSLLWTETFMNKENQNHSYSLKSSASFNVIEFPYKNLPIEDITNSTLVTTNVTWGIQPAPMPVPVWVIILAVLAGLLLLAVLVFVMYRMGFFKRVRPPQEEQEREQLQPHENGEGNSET
T1 sequence (P05106 27-788): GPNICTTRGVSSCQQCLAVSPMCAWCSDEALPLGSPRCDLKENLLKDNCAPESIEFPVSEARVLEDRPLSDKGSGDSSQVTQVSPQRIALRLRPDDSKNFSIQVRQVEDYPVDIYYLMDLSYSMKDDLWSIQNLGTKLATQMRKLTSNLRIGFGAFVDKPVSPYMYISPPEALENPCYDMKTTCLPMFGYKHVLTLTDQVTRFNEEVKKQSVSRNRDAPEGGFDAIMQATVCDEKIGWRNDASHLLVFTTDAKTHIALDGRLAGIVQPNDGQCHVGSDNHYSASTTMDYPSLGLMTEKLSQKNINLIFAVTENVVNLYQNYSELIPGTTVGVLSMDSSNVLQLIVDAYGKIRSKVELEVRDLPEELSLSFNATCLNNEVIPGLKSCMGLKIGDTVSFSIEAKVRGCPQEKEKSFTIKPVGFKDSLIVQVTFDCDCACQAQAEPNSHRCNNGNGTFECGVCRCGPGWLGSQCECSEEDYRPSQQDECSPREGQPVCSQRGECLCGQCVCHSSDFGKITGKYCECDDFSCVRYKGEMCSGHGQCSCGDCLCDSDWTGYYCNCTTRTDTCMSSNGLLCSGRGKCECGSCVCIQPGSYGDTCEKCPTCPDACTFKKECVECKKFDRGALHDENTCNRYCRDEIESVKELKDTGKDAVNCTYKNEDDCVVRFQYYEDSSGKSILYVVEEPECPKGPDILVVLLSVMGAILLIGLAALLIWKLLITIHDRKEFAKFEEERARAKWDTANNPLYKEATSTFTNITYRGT

[2] = Log P determination: octanol-water partition coefficient (1-octanol/PBS) of the labelled compound
Procedure: Octanol-water partition coefficients were determined by addition of ca. 50 kBq of the respective labelled compound to Eppendorf cup containing each 500 μl of 1-octanol and isotonic phosphate buffered saline (PBS). After 2 min of vigorous stirring, the phases were separated by centrifugation, 100 μl aliquots of each phase taken out and the activity contained determined with a gamma counter. Each experiment was repeated 5-8 times.

**Q.** Which tissue uptake at 1 h (in vivo; adrenal gland, 60 min, blocked, read-out: uptake % ID/g, adrenal gland) does the source give for `N=C(N)NCCC[C@@H]1NC(=O)[C@H](CCCCNC(=O)CCOCCOCCOCCOCCNC(=O)CCP(=O)(O)CN2CCN(CP(=O)(O)CCC(=O)NCCOCCOCCOCCOCCC(=O)NCCCC[C@@H]3NC(=O)[C@@H](Cc4ccccc4)NC(=O)[C@H](CC(=O)O)NC(=O)CNC(=O)[C@H](CCCNC(=N)N)NC3=O)CCN(CP(=O)(O)CCC(=O)NCCOCCOCCOCCOCCC(=O)NCCCC[C@@H]3NC(=O)[C@@H](Cc4ccccc4)NC(=O)[C@H](CC(=O)O)NC(=O)CNC(=O)[C@H](CCCNC(=N)N)NC3=O)CC2)NC(=O)[C@@H](Cc2ccccc2)NC(=O)[C@H](CC(=O)O)NC(=O)CNC1=O` (single isomer, unassigned) [68Ga-R3PEG4P9, metal not drawn] here?
**A.** Its tissue uptake at 1 h is 0.36 %ID/g.

**Q.** What about the tissue uptake at 1 h (in vivo; adrenal gland, 60 min, read-out: uptake % ID/g, adrenal gland) of the same molecule?
**A.** Its tissue uptake at 1 h is 27.8 %ID/g.

**Q.** What about the tissue uptake at 2 h (in vivo; adrenal gland, 120 min, read-out: uptake % ID/g, adrenal gland) of the same molecule?
**A.** Its tissue uptake at 2 h is 24.2 %ID/g.

**Q.** What about the tissue uptake at 1 h (in vivo; blood, 60 min, blocked (200 μg unlabeled R3PEG4P9 10 min before), read-out: uptake % ID/g, blood) of the same molecule?
**A.** Its tissue uptake at 1 h is 0.09 %ID/g.

**Q.** And the tissue uptake at 1 h (in vivo; blood, 60 min after tracer injection, read-out: uptake % ID/g, blood)?
**A.** Its tissue uptake at 1 h is 0.31 %ID/g.

**Q.** What about the tissue uptake at 2 h (in vivo; blood, 120 min after tracer injection, read-out: uptake % ID/g, blood) of the same molecule?
**A.** Its tissue uptake at 2 h is 0.16 %ID/g.

**Q.** What about the tissue uptake at 1 h (in vivo; heart, 60 min, blocked, read-out: uptake % ID/g, heart) of the same molecule?
**A.** The tissue uptake at 1 h was 0.08 %ID/g.

**Q.** And the tissue uptake at 1 h (in vivo; heart, 60 min, read-out: uptake % ID/g, heart)?
**A.** Its tissue uptake at 1 h is 1.29 %ID/g.

**Q.** What about the tissue uptake at 2 h (in vivo; heart, 120 min, read-out: uptake % ID/g, heart) of the same molecule?
**A.** Its tissue uptake at 2 h is 1.47 %ID/g.

**Q.** And the tissue uptake at 1 h (in vivo; kidneys, 60 min, blocked, read-out: uptake % ID/g, kidneys)?
**A.** The tissue uptake at 1 h was 1.97 %ID/g.

**Q.** What about the tissue uptake at 1 h (in vivo; kidneys, 60 min, read-out: uptake % ID/g, kidneys) of the same molecule?
**A.** The tissue uptake at 1 h was 10.2 %ID/g.

**Q.** And the tissue uptake at 2 h (in vivo; kidneys, 120 min, read-out: uptake % ID/g, kidneys)?
**A.** The tissue uptake at 2 h was 8.63 %ID/g.

**Q.** What about the tissue uptake at 1 h (in vivo; large int., 60 min, blocked, read-out: uptake % ID/g, large int.) of the same molecule?
**A.** Its tissue uptake at 1 h is 0.11 %ID/g.

**Q.** What about the tissue uptake at 1 h (in vivo; large int., 60 min, read-out: uptake % ID/g, large int.) of the same molecule?
**A.** The tissue uptake at 1 h was 2.44 %ID/g.

**Q.** And the tissue uptake at 2 h (in vivo; large int., 120 min, read-out: uptake % ID/g, large int.)?
**A.** The tissue uptake at 2 h was 2.27 %ID/g.

**Q.** What about the tissue uptake at 1 h (in vivo; liver, 60 min, blocked, read-out: uptake % ID/g, liver) of the same molecule?
**A.** Its tissue uptake at 1 h is 0.32 %ID/g.

**Q.** What about the tissue uptake at 1 h (in vivo; liver, 60 min, read-out: uptake % ID/g, liver) of the same molecule?
**A.** The tissue uptake at 1 h was 5.18 %ID/g.

**Q.** And the tissue uptake at 2 h (in vivo; liver, 120 min, read-out: uptake % ID/g, liver)?
**A.** Its tissue uptake at 2 h is 3.97 %ID/g.

**Q.** What about the tissue uptake at 1 h (in vivo; lung, 60 min, blocked, read-out: uptake % ID/g, lung) of the same molecule?
**A.** Its tissue uptake at 1 h is 0.54 %ID/g.

**Q.** And the tissue uptake at 1 h (in vivo; lung, 60 min, read-out: uptake % ID/g, lung)?
**A.** Its tissue uptake at 1 h is 2.96 %ID/g.

**Q.** And the tissue uptake at 2 h (in vivo; lung, 120 min, read-out: uptake % ID/g, lung)?
**A.** The tissue uptake at 2 h was 2.15 %ID/g.

**Q.** What about the tissue uptake at 1 h (in vivo; muscle, 60 min, blocked, read-out: uptake % ID/g, muscle) of the same molecule?
**A.** Its tissue uptake at 1 h is 0.05 %ID/g.

**Q.** And the tissue uptake at 1 h (in vivo; muscle, 60 min, read-out: uptake % ID/g, muscle)?
**A.** The tissue uptake at 1 h was 0.95 %ID/g.

**Q.** And the tissue uptake at 2 h (in vivo; muscle, 120 min, read-out: uptake % ID/g, muscle)?
**A.** The tissue uptake at 2 h was 0.67 %ID/g.

**Q.** What about the tissue uptake at 1 h (in vivo; pancreas, 60 min, blocked, read-out: uptake % ID/g, pancreas) of the same molecule?
**A.** Its tissue uptake at 1 h is 0.07 %ID/g.

**Q.** What about the tissue uptake at 1 h (in vivo; pancreas, 60 min, read-out: uptake % ID/g, pancreas) of the same molecule?
**A.** The tissue uptake at 1 h was 0.88 %ID/g.

**Q.** What about the tissue uptake at 2 h (in vivo; pancreas, 120 min, read-out: uptake % ID/g, pancreas) of the same molecule?
**A.** The tissue uptake at 2 h was 0.81 %ID/g.

**Q.** What about the tissue uptake at 1 h (in vivo; small int., 60 min, blocked, read-out: uptake % ID/g, small int.) of the same molecule?
**A.** Its tissue uptake at 1 h is 0.24 %ID/g.

**Q.** And the tissue uptake at 1 h (in vivo; small int., 60 min, read-out: uptake % ID/g, small int.)?
**A.** The tissue uptake at 1 h was 4.92 %ID/g.

**Q.** And the tissue uptake at 2 h (in vivo; small int., 120 min, read-out: uptake % ID/g, small int.)?
**A.** The tissue uptake at 2 h was 3.75 %ID/g.

**Q.** And the tissue uptake at 1 h (in vivo; spleen, 60 min, blocked, read-out: uptake % ID/g, spleen)?
**A.** The tissue uptake at 1 h was 0.24 %ID/g.

**Q.** And the tissue uptake at 1 h (in vivo; spleen, 60 min, read-out: uptake % ID/g, spleen)?
**A.** The tissue uptake at 1 h was 3.38 %ID/g.

**Q.** And the tissue uptake at 2 h (in vivo; spleen, 120 min, read-out: uptake % ID/g, spleen)?
**A.** Its tissue uptake at 2 h is 3.5 %ID/g.

**Q.** And the tissue uptake at 1 h (in vivo; stomach, 60 min, blocked, read-out: uptake % ID/g, stomach)?
**A.** Its tissue uptake at 1 h is 0.17 %ID/g.

**Q.** What about the tissue uptake at 1 h (in vivo; stomach, 60 min, read-out: uptake % ID/g, stomach) of the same molecule?
**A.** The tissue uptake at 1 h was 4.43 %ID/g.

**Q.** And the tissue uptake at 2 h (in vivo; stomach, 120 min, read-out: uptake % ID/g, stomach)?
**A.** The tissue uptake at 2 h was 3.56 %ID/g.

**Q.** And the tissue uptake at 1 h (in vivo; thyroid, 60 min, blocked, read-out: uptake % ID/g, thyroid)?
**A.** The tissue uptake at 1 h was 0.17 %ID/g.

**Q.** What about the tissue uptake at 1 h (in vivo; thyroid, 60 min, read-out: uptake % ID/g, thyroid) of the same molecule?
**A.** The tissue uptake at 1 h was 3.27 %ID/g.

**Q.** And the tissue uptake at 2 h (in vivo; thyroid, 120 min, read-out: uptake % ID/g, thyroid)?
**A.** Its tissue uptake at 2 h is 2.89 %ID/g.

**Q.** And the tissue uptake at 1 h (in vivo; tumor M21 (high αvβ3), 60 min, blocked, read-out: uptake % ID/g, tumor M21)?
**A.** The tissue uptake at 1 h was 0.62 %ID/g.

**Q.** And the tissue uptake at 1 h (in vivo; tumor M21 (high αvβ3), 60 min, read-out: uptake % ID/g, tumor M21)?
**A.** Its tissue uptake at 1 h is 6.08 %ID/g.

**Q.** What about the tissue uptake at 2 h (in vivo; tumor M21 (high αvβ3), 120 min, read-out: uptake % ID/g, tumor M21) of the same molecule?
**A.** Its tissue uptake at 2 h is 4.63 %ID/g.

**Q.** What about the tissue uptake at 1 h (in vivo; tumor M21L (low αvβ3), 60 min, blocked, read-out: uptake % ID/g, tumor M21L) of the same molecule?
**A.** The tissue uptake at 1 h was 0.31 %ID/g.

**Q.** And the tissue uptake at 1 h (in vivo; tumor M21L (low αvβ3), 60 min, read-out: uptake % ID/g, tumor M21L)?
**A.** The tissue uptake at 1 h was 1.48 %ID/g.

**Q.** And the tissue uptake at 2 h (in vivo; tumor M21L (low αvβ3), 120 min, read-out: uptake % ID/g, tumor M21L)?
**A.** Its tissue uptake at 2 h is 1.7 %ID/g.

**Q.** And the “fraction of the blood activity in the plasma after centrifugation” value ([1]; in vivo)?
**A.** The value was 96%.

**Q.** And the “metabolites in tissue extracts, plasma and urine (radio-HPLC)” value ([1]; in vivo)?
**A.** The value was “no metabolites could be detected”.

**Q.** Which “stability in vivo (analysis of metabolites)” value [1] does the source give for `N=C(N)NCCC[C@@H]1NC(=O)[C@H](CCCCNC(=O)CCOCCOCCOCCOCCNC(=O)CCP(=O)(O)CN2CCN(CP(=O)(O)CCC(=O)NCCOCCOCCOCCOCCC(=O)NCCCC[C@@H]3NC(=O)[C@H](Cc4ccccc4)NC(=O)[C@H](CC(=O)O)NC(=O)CNC(=O)[C@H](CCCNC(=N)N)NC3=O)CCN(CP(=O)(O)CCC(=O)NCCOCCOCCOCCOCCC(=O)NCCCC[C@@H]3NC(=O)[C@@H](Cc4ccccc4)NC(=O)[C@@H](CC(=O)O)NC(=O)CNC(=O)[C@@H](CCCNC(=N)N)NC3=O)CC2)NC(=O)[C@H](Cc2ccccc2)NC(=O)[C@H](CC(=O)O)NC(=O)CNC1=O` [Compound R3PEG4P9] here?
**A.** Its value is “fully stable in vivo”.

**Q.** And the IC50 (αvβ3 integrin)?
**A.** The IC50 was 42.7 nM.

**Q.** Which logP [2] does the source give for `N=C(N)NCCC[C@@H]1NC(=O)[C@H](CCCCNC(=O)CCOCCOCCOCCOCCOCCOCCOCCOCCNC(=O)CCP(=O)(O)CN2CCN(CP(=O)(O)CCC(=O)NCCOCCOCCOCCOCCOCCOCCOCCOCCC(=O)NCCCC[C@@H]3NC(=O)[C@@H](Cc4ccccc4)NC(=O)[C@H](CC(=O)O)NC(=O)CNC(=O)[C@H](CCCNC(=N)N)NC3=O)CCN(CP(=O)(O)CCC(=O)NCCOCCOCCOCCOCCOCCOCCOCCOCCC(=O)NCCCC[C@@H]3NC(=O)[C@@H](Cc4ccccc4)NC(=O)[C@H](CC(=O)O)NC(=O)CNC(=O)[C@H](CCCNC(=N)N)NC3=O)CC2)NC(=O)[C@@H](Cc2ccccc2)NC(=O)[C@H](CC(=O)O)NC(=O)CNC1=O` [Ga-R3PEG8P9] here?
**A.** Its logP is -4.13 ± 0.16.
